In the RNAGym collection of RNA variant scans (doi:10.7554/elife.80360):

B1: HDV Ribozyme (parent)
chain: GGCCGGCAUGGUCCCAGCCUCCUCGCUGGCGCCGGCUGGGCAACAUUCCGAGGGGACCGUCCCCUCGGUAAUGGCGAAUGGGACCCA

Variants of: B1
Assay: self-cleavage, relative activity (ratio to wild type); higher = more cleavage; co-transcriptional

Row | Variant | self-cleavage
1 | GGCCGGCAUGGUCCAAGCCUCCUCGCUGGCGCCGGCUGGGCAACAUUCCGAGGGGACGGUCCCCUCGGUAAUGGCGAAUGGGACCCA [C15A C58G] | 1.02
2 | GGCCGGCAUGGUCCAAGCCUCCUCGCUGGCGCCGGCUGGGCAACAUUCCGAGGGGACCGUCGCCUCGGUAAUGGCGAAUGGGACCCA [C15A C62G] | 0.499
3 | GGCCGGCAUGGUCCCAGCCUCCUCGCUGGCGCCGGCUGGGCACCAUUCCGAGGGGACCGUUCCCUCGGUAAUGGCGAAUGGGACCCA [A43C C61U] | 0.434
4 | GGCCGGCAUGGUCCCAGCCUCCUCGCUGGCACCGGCUGGGCAACAUUCCGACGGGACCGUCCCCUCGGUAAUGGCGAAUGGGACCCA [G31A G52C] | 0.619
5 | GGCCGGCGUGGUCCCAGCCUCCUCGCUGGCGCCGACUGGGCAACAUUCCGAGGGGACCGUCCCCUCGGUAAUGGCGAAUGGGACCCA [A8G G35A] | 0.332
6 | GGCCGGCAUCGUCCCAGCCUCCUCGCUGGCGCCGGCUGUGCAACAUUCCGAGGGGACCGUCCCCUCGGUAAUGGCGAAUGGGACCCA [G10C G39U] | 0.808
7 | GGCCGGCAUGGUCCCAGCCUCCUCGCUCGCGCCGGCUGGGCAACAUUCCGAGGGGACCGUCCCCUCGGUAAUGGCGAAUGGCACCCA [G28C G82C] | 0.0475
8 | GGCCGGCAUGGUCCCAGCCUCCUCGCUGGCGCCGGCUGGGCAACAUUCCGAGGGGACCGGCCCCUCGGUAAUUGCGAAUGGGACCCA [U60G G73U] | 0.298
9 | GGCCGGCAUGGUCCCAGCCUCCUCGCUUGCGCCGGCUGGGCAACAUUCCGAGGGGACCGUCCCCUCGUUAAUGGCGAAUGGGACCCA [G28U G68U] | 0.0386
10 | GGCCGGCAUGGUCCCAGCCUACUCGCUGGCGCCGGCGGGGCAACAUUCCGAGGGGACCGUCCCCUCGGUAAUGGCGAAUGGGACCCA [C21A U37G] | 0.208
11 | GGCCCGCAUGGUCCCAGCCUCCUCGCUGGCGCCGGCUGGGCAAGAUUCCGAGGGGACCGUCCCCUCGGUAAUGGCGAAUGGGACCCA [G5C C44G] | 0
12 | GGCCGGCAUGGUCCCAGCCUCCUCGCUGGCGCCGGCUAGGCAACAUUCCGAGGGGACCGUCCCCUCGGUGAUGGCGAAUGGGACCCA [G38A A70G] | 0
13 | GGCCGGCAUGGUCCCAGCCUCCCCGCUGGCGCCGGCUGGGCAACAUUCCGAGGGGACCGUCCCCUCGGUAAUGGCGAAUGGCACCCA [U23C G82C] | 0.465
14 | GUCCGGCAUGGUCCCAGCCUCCUCGCUGGCGCCGGCUGGGCAACAUUCCGAGGGGACCGUCCCCUCGGUAAUGGCGAAGGGGACCCA [G2U U79G] | 0
15 | GGCCGGCAUGGUCCCAGCCUCCUCGCGGGCGCCGGCUGGGCAACAGUCCGAGGGGACCGUCCCCUCGGUAAUGGCGAAUGGGACCCA [U27G U46G] | 0.462
16 | GGCCGGCAUGGUCCCAGCCUCCUCGCUGGCGCCGGCUGGGCAAUAUUCCGAGUGGACCGUCCCCUCGGUAAUGGCGAAUGGGACCCA [C44U G53U] | 0.831
17 | GGCCGGCAUGGUCCCAGCCUCCUCGCUGGCGCCGGCUGGGCAACAUUCCGAGGGGACCGUCCCCUCGGUAAUGUCGACUGGGACCCA [G74U A78C] | 0.201
18 | GGCCGGCAUGGUCCCAGCCUCCUCGCUGGCGUCGGCUUGGCAACAUUCCGAGGGGACCGUCCCCUCGGUAAUGGCGAAUGGGACCCA [C32U G38U] | 0.205
19 | GGCCGGCAUGGUCCCAGCCUCCACGCUGGCGCCGGCUGGGCAACAUGCCGAGGGGACCGUCCCCUCGGUAAUGGCGAAUGGGACCCA [U23A U47G] | 0.748
20 | GGCCGGCAUGGUCCCAGCCUCCUCGCUGGCGCCGGCUGGGUAACAUUCCGAGGGGACCGUCCCCUCGGUAAUGGCGAAAGGGACCCA [C41U U79A] | 0.98
21 | GGCCGGCAUGGUCCCAGCCUCCUCGCUGGCGCCGGCUGGGCAUCAUUCCGAGGGGACCGUACCCUCGGUAAUGGCGAAUGGGACCCA [A43U C61A] | 0.532
22 | GGCCGGCAUGGUCCCAGCCUCCUCGCUGGCGCCGGCUGGGCAACAUUCCGAGGGGUCCGUCCCCUCGGUAAUCGCGAAUGGGACCCA [A56U G73C] | 0.698

Row | Variant | self-cleavage
23 | GGCCGGCAUGGUCCCAGCCUCCUCCCUGGCGCCGGCUGGGCAACAUUCCGAGGGGACCGUCCCCUUGGUAAUGGCGAAUGGGACCCA [G25C C66U] | 0.0563
24 | GGCCGGCAGGGUCCCAGCCUCCUCGCUGGCGCCGGCUGGGCAACAUUCGGAGGGGACCGUCCCCUCGGUAAUGGCGAAUGGGACCCA [U9G C49G] | 0.886
25 | GGCCGGCAUGGUCCCAGCCUCCUCGCUGGCGCCGGCUGGGCAACAUUCCUAGGGGACUGUCCCCUCGGUAAUGGCGAAUGGGACCCA [G50U C58U] | 0.909
26 | GGCCGGCAUGGUCCCCGCCUCCUCGCUGGCGCCGGCUGGGCUACAUUCCGAGGGGACCGUCCCCUCGGUAAUGGCGAAUGGGACCCA [A16C A42U] | 0.208
27 | GGCCGGCAUGGUCCCAGCCUCCUCGCUGGCCCCGGCUGGGCAACAUUCCGAGGGGACCUUCCCCUCGGUAAUGGCGAAUGGGACCCA [G31C G59U] | 0.252
28 | GGCCGGCAUGGUCCCAGCCUCCUCGCUGGCCCCGGCUGGGCAACAUUCCGAGGGGAUCGUCCCCUCGGUAAUGGCGAAUGGGACCCA [G31C C57U] | 0.445
29 | GGCCGGCAUGGUCCCAGCCUCCUCGCUGGCGCCGGCUGGGCAACCUUCCGAGGGGACUGUCCCCUCGGUAAUGGCGAAUGGGACCCA [A45C C58U] | 0.831
30 | GGCCGGCAUGGUCCGUGCCUCCUCGCUGGCGCCGGCUGGGCAACAUUCCGAGGGGACCGUCCCCUCGGUAAUGGCGAAUGGGACCCA [C15G A16U] | 0.795
31 | GGCCGGCAUGGUCCCAGCCUCCUCGCUGGCGCCGGCUGGGCAGCAUUCCGAGGGGAUCGUCCCCUCGGUAAUGGCGAAUGGGACCCA [A43G C57U] | 0.974
32 | GGCCGGCAUGGUCCCAGCCUCCUCGCUGGCGUCGGCUGGGCAACAUUCCGAGGGGACCGUCCCCUCGGUAAUGGCGAAUGGGAACCA [C32U C84A] | 0.753
33 | GGCCGGCAUGGUCACAGCCUCCUCGCUGGCGCCGGCUGGUCAACAUUCCGAGGGGACCGUCCCCUCGGUAAUGGCGAAUGGGACCCA [C14A G40U] | 0.261
34 | GGCCGGCAUGGUCCCAGCCUCCUCGCUGCCGCCGGCUGGGCAACAUUCCGAGGGGACCGUCCCCUCGGUAAUGGUGAAUGGGACCCA [G29C C75U] | 0.0287
35 | GGCCGGCAUGGACCCAGCCUCCUCGCUGGCGCCGGCUGGGCAACAUUCCGAGGGGACCCUCCCCUCGGUAAUGGCGAAUGGGACCCA [U12A G59C] | 0.573
36 | GGCCGGCAUGGUCCCAGCCGCCUCGCUGGCGCCGGCUGGGCAACAUUCCGAGGGGACCGUCCCCUCGGUAACGGCGAAUGGGACCCA [U20G U72C] | 0
37 | GGCCGGCAUGGUCCCGGCCUCCUCGCUGGCGCCGGCUGGGCAGCAUUCCGAGGGGACCGUCCCCUCGGUAAUGGCGAAUGGGACCCA [A16G A43G] | 0.266
38 | GGCCGGCAUGGUCCCAGCCUCCUCGCUGGCGCCGGCUGGGCAACAUUCCGAGGAGACCGGCCCCUCGGUAAUGGCGAAUGGGACCCA [G54A U60G] | 1.03
39 | GGCCGGCAUGGUCCCAGCCUCCUCGCUGGCGCCGGCUGGGCCACACUCCGAGGGGACCGUCCCCUCGGUAAUGGCGAAUGGGACCCA [A42C U46C] | 0.214
40 | GGCCGGCAUGGUCCCAGCCUCCUCGCUGGCGCCGGCUGGGCAACAUUCCGAGGGGACCGUCCCCUCGGUAAUGGUGAAUGGGACCCG [C75U A87G] | 0.0917
41 | GGCCGGCAUGGUCCCAGCCUCCUCGCUGGCGCCGGCUGGGCAACAUUCCGAGAGGACCGUCCUCUCGGUAAUGGCGAAUGGGACCCA [G53A C63U] | 0.812
42 | GGCCGGCAUGGUCCCAGCCCCCUGGCUGGCGCCGGCUGGGCAACAUUCCGAGGGGACCGUCCCCUCGGUAAUGGCGAAUGGGACCCA [U20C C24G] | 0.115
43 | GGCCGGCAUGGUCCCAGCCUCCUCGCUGGCGCCGGCUGGGCAGCAUUCCGACGGGACCGUCCCCUCGGUAAUGGCGAAUGGGACCCA [A43G G52C] | 0.796
44 | GGCCGGCAUGGUCCCCGCCUCCUCGCUGGCGCCGGCUGGGCAACAUUCCGAGGGGACCGUCCCCUCGGUAAUGGCGAAUGGGACCAA [A16C C86A] | 0.692

Row | Variant | self-cleavage
45 | GGCCGGCAUGGUCCCAGCCUCCUCGCUGGCGCCGGCUGGACAACAUUCCGAGGGGACCGUCCCCUCGGUAAUGGCGAAUGAGACCCA [G40A G81A] | 0.475
46 | GGCCGGCAUGGUCCCAUCCUCCUCGCUGGCGCCGGCUGGGCAACAUUCCGAGGGGACCGUCCCCUCGGUAUUGGCGAAUGGGACCCA [G17U A71U] | 0.443
47 | GGCCGGCAUGGUCCUAGCCUCCUCGCUGGCGCCGGCUGGGCAACAUUCCGAGGGGACCGUCCCCUCGGUAAUGGCGAAUGGGCCCCA [C15U A83C] | 0.65
48 | GGCCGGCAUGGUCCCAGCCUCCUCGCUGGCGCCGGCUGGGCAACAUUCCGAGGGGACCGUACCCUCGGUAAUGGCGAAUGGCACCCA [C61A G82C] | 0.228
49 | GGACGGCAUGGUCCCAGCCUCCUCGCUGGCGCCGGCUGGGCAACAUUCCGAGGGGACCGUCCCCUCAGUAAUGGCGAAUGGGACCCA [C3A G67A] | 0.462
50 | GACCGGGAUGGUCCCAGCCUCCUCGCUGGCGCCGGCUGGGCAACAUUCCGAGGGGACCGUCCCCUCGGUAAUGGCGAAUGGGACCCA [G2A C7G] | 0.017
51 | GGCCGGCAUGGUCCCAGCCUCCUCGCUGGCGCCGGCUGGGCAACAUUCCGAGGGGACCGUCCCCACGGUCAUGGCGAAUGGGACCCA [U65A A70C] | 0.643
52 | GUCCGGCAUGGUCCCAGCCUCCUCGCUGGCGCCGGCUGGGCAACAGUCCGAGGGGACCGUCCCCUCGGUAAUGGCGAAUGGGACCCA [G2U U46G] | 0.0231
53 | GGCCGGCAUGGUCCCAGCCUCCUCGCUGGCGCCGGCUGGGCAACAUUCCGAAGGGACCGUCCCCUCGGUAAUGGCGAAUGGUACCCA [G52A G82U] | 0.367
54 | GGCCGGCAUGGUGCGAGCCUCCUCGCUGGCGCCGGCUGGGCAACAUUCCGAGGGGACCGUCCCCUCGGUAAUGGCGAAUGGGACCCA [C13G C15G] | 0.122
55 | GGCCGGCAUGGUCCCAGCCUCCUCGCUGGCGCCGGCUGGGCAACAUACCGAGGAGACCGUCCCCUCGGUAAUGGCGAAUGGGACCCA [U47A G54A] | 0.95
56 | GGCCGGCAUGGCCCCAGCCUCCUCGCUGGCGCCGGCUGGGCAACAUUCCGAGGGGAGCGUCCCCUCGGUAAUGGCGAAUGGGACCCA [U12C C57G] | 0.0831
57 | GUCCGGCAUGGUCCCAGCCUCCGCGCUGGCGCCGGCUGGGCAACAUUCCGAGGGGACCGUCCCCUCGGUAAUGGCGAAUGGGACCCA [G2U U23G] | 0.0287
58 | GGCCGGCAUGGUCCCAGCCUCCUCGCUGGCGCCGGCUGGGCAACAUUCCGAGGGGACCGUCCCCUUGGUUAUGGCGAAUGGGACCCA [C66U A70U] | 0.919
59 | GGCCGGCAUGGUCGCAGCCUCCUGGCUGGCGCCGGCUGGGCAACAUUCCGAGGGGACCGUCCCCUCGGUAAUGGCGAAUGGGACCCA [C14G C24G] | 0
60 | GGCCGGCAUGGUCCCAGCCUCCUCGCUGGCGCCGGCUGGGCAACAUUCUGAGGGGACCGUCCCCUCGGUAAUGGCGACUGGGACCCA [C49U A78C] | 0.188
61 | GGCCGGCAUGGUCCCAGCCUCCUCCCUGGCGCUGGCUGGGCAACAUUCCGAGGGGACCGUCCCCUCGGUAAUGGCGAAUGGGACCCA [G25C C33U] | 0.0773
62 | GGCCGGCAUGGUCCCAGCCUCCUCGCUGGCGCCGGCUGGGCAACAUUCCGUGGGGACCGUCCCCUCGGUAAUGGCGAGUGGGACCCA [A51U A78G] | 0.532
63 | GGCCGGCAUGGUCCCAGCCACCUCGCUGGCGCCGGCUGGGCAACAUUCCGAGGGGACCGUCCCCUCGGUAAUCGCGAAUGGGACCCA [U20A G73C] | 0.0615
64 | GGCCGGCAUGGUCUCAGCCUCCUCGCUGGCGCCGGCUGGGCAAGAUUCCGAGGGGACCGUCCCCUCGGUAAUGGCGAAUGGGACCCA [C14U C44G] | 0.7
